Data reported in patent publication US20230190900 (published 2023).
Each block holds one binder with its values, some of them ahead of it.

How the values were obtained:
[1] = target: T1, human FcγRIIa (CD32A) (human, UniProt P12318); experiment: SPR
T1 chain: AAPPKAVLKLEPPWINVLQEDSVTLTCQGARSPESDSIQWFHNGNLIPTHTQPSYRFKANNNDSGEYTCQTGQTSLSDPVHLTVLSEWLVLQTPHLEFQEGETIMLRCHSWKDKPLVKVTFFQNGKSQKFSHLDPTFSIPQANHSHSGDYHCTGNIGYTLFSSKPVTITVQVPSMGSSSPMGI

[2] = target: T2, murine FcRn (mouse, UniProt Q61559); experiment: SPR, pH 6.0
T2 chain 1: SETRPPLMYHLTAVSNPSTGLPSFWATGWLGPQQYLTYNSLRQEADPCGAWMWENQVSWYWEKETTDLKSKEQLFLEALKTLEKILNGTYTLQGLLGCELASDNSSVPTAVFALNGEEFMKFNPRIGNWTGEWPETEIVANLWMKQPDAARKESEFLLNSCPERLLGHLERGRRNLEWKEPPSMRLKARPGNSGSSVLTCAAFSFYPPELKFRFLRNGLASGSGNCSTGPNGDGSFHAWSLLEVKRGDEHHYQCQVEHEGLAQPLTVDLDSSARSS
T2 chain 2: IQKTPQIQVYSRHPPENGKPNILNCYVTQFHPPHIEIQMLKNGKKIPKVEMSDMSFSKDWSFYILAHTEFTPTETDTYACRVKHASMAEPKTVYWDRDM

[3] = target: T3, murine FcγRI (mouse, UniProt P26151); experiment: SPR
T3 chain: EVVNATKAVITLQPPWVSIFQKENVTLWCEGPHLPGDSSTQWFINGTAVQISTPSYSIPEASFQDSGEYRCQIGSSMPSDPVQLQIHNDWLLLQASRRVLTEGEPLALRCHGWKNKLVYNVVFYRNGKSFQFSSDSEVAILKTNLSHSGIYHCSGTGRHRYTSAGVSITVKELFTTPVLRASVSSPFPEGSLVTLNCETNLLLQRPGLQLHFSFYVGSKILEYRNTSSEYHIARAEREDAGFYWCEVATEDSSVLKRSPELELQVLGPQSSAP

[4] = target: T4, human FcγRI (CD64) (human, UniProt P12314); experiment: SPR
T4 chain: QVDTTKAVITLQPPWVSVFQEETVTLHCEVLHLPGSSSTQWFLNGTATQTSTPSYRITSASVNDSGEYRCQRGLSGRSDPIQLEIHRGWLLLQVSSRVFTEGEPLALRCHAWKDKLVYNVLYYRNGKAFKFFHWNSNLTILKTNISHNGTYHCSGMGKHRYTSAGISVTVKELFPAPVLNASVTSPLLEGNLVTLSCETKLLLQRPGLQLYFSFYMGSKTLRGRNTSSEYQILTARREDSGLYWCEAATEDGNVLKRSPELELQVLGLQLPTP

[5] = target: T5, murine FcγRIII (mouse, UniProt P08508); experiment: SPR
T5 chain: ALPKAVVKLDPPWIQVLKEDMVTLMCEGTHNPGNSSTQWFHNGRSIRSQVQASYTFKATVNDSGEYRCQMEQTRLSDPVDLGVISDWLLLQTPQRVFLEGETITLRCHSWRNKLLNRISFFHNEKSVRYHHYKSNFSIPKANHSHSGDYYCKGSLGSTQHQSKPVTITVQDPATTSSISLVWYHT

[6] = target: T6, human FcγRIIc (CD32C) (human, UniProt P31995); experiment: SPR
T6 chain: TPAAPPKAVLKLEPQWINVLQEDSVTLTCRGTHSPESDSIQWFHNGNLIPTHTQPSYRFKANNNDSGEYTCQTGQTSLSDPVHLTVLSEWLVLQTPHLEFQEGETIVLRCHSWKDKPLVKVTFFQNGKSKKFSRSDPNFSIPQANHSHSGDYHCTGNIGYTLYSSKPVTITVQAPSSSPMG

[7] = target: T7, human FcγRIIb (CD32B) (human, UniProt P31994); experiment: SPR
T7 chain: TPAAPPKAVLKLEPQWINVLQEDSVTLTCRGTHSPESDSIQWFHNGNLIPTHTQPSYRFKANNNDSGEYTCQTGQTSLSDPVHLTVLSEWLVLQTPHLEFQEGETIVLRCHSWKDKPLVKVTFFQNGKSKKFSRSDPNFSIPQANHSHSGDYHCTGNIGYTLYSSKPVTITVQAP

[8] = target: T8, cynomolgus FcγRIIa (CD32A) (cynomolgus); experiment: SPR
T8 chain: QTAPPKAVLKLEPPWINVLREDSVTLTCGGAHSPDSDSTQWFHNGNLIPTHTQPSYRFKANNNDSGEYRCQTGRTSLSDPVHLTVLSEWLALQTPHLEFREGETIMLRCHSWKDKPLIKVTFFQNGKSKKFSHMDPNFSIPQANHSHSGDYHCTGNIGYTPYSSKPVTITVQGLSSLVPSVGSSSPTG

[9] = target: T9, murine FcγRIIb (mouse, UniProt P08101); experiment: SPR
T9 chain: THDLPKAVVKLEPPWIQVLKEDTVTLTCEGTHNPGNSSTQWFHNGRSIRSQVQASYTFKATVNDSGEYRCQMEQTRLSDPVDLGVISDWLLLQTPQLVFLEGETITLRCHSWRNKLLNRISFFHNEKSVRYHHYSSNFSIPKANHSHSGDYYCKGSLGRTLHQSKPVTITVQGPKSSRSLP

[10] = target: T10, cynomolgus FcRn (cynomolgus, UniProt Q8SPV9); experiment: SPR, pH 6.0
T10 chain 1: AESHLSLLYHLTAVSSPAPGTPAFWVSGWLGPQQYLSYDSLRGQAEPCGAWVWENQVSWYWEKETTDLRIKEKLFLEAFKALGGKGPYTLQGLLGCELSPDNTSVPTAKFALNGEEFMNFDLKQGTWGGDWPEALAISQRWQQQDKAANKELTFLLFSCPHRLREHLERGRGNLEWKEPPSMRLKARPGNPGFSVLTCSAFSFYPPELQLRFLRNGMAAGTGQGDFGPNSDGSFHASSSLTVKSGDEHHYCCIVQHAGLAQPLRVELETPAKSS
T10 chain 2: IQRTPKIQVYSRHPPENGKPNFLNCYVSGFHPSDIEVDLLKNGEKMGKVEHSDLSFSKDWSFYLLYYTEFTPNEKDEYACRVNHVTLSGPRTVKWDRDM

[11] = target: T11, human FcγRIIIb (NA1) CD16B (human, UniProt O75015); experiment: SPR
T11 chain: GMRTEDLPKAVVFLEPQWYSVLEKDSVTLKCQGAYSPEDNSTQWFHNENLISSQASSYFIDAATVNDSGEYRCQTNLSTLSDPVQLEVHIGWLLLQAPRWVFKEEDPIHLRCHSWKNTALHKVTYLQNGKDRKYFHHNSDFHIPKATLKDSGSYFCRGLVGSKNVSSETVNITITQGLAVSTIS

[12] = target: human FcRn (human, UniProt P55899); experiment: SPR, pH 6.0
[13] = target: T12, murine FcγRIV (CD16-2) (mouse, UniProt A0A0B4J1G0); experiment: SPR
T12 chain: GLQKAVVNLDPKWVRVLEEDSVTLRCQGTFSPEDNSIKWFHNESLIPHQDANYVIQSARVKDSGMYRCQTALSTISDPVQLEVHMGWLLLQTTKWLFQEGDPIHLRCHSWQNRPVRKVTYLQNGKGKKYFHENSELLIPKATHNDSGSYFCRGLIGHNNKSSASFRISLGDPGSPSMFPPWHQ

[14] = target: EGFRvIII (CHO cells) (human); experiment: FACS, CHO cells 37C

binding result [1]: no binding
binding result [2]: no binding
binding result [3]: no binding
binding result [4]: no binding
binding result [5]: no binding
binding result [6]: no binding
binding result [7]: no binding
binding result [8]: no binding
binding result [9]: no binding
binding result [10]: no binding
binding result [11]: no binding
binding result [12]: no binding
binding result [13]: no binding
B1: EGFR/CD16A tandem diabody (full) (antibody)
chain 1: QVQLQESGPGLVKPSETLSLTCTVSGGSVSSGSYYWSWIRQPPGKGLEWIGYIYYSGSTNYNPSLKSRVTISVDTSKNQFSLKLSSVTAADTAVYYCARNPISIPAFDIWGQGTMVTVSSGGSGGSGGSSYVLTQPSSVSVAPGQTATISCGGHNIGSKNVHWYQQRPGQSPVLVIYQDNKRPSGIPERFSGSNSGNTATLTISGTQAMDEADYYCQVWDNYSVLFGGGTKLTVLGGSGGSQVQLVQSGAEVKKPGESLKVSCKASGYTFTSYYMHWVRQAPGQGLEWMGIINPSGGSTSYAQKFQGRVTMTRDTSTSTVYMELSSLRSEDTAVYYCARGSAYYYDFADYWGQGTLVTVSSGGSGGSGGSQPVLTQPPSVSVAPGKTARITCGGNNIGSKSVHWYQQKPGQAPVLVIYYDSDRPSGIPERFSGSNSGNTATLTISRVEAGDEADYYCQVWDTSSDHVLFGGGTKLTVLAAAGSHHHHHH
chain 2: B1 chain 1

Kd [14]: 0.5 nM
B2: Tandem diabody EGFR arm (antibody, V domains shown)
VH: QVQLQESGPGLVKPSETLSLTCTVSGGSVSSGSYYWSWIRQPPGKGLEWIGYIYYSGSTNYNPSLKSRVTISVDTSKNQFSLKLSSVTAADTAVYYCARNPISIPAFDIWGQGTMVTVSS
VL: QPVLTQPPSVSVAPGKTARITCGGNNIGSKSVHWYQQKPGQAPVLVIYYDSDRPSGIPERFSGSNSGNTATLTISRVEAGDEADYYCQVWDTSSDHVLFGGGTKLTVL
